From paper PMC6827286
Changes are numbered by the printed parent chain. Names and notes keep the numbering of the source.

T1: colFD-NL
T1 chain: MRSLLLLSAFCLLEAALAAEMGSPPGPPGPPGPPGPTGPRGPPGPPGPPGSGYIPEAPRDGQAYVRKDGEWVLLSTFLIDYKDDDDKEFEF

B1: Hsp47-HT (natural protein)
chain: AEVKKPLEAAAPGTAEKLSSKATTLAERSTGLAFSLYQAMAKDQAVENILLSPLVVASSLGLVSLGGKATTASQAKAVLSAEKLRDEEVHTGLGELLRSLSNSTARNVTWKLGSRLYGPSSVSFADDFVRSSKQHYNCEHSKINFRDKRSALQSINEWASQTTDGKLPEVTKDVERTDGALLVNAMFFKPHWDEKFHHKMVDNRGFMVTRSYTVGVTMMHRTGLYNYYDDEKEKLQMVEMPLAHKLSSLIILMPHHVEPLERLEKLLTKEQLKAWMGKMQKKAVAISLPKGVVEVTHDLQKHLAGLGLTEAIDKNKADLSRMSGKKDLYLASVFHATAFEWDTEGNPFDQDIYGREELRSPKLFYADHPFIFLVRDNQSGSLLFIGRLVRPKGDKMRDEL
modifications: HaloTag fluorescent ligand 618 on the HaloTag
B2: Hsp47-HT, P19324 Y353A (protein)
chain: B1 chain with Y353A
B3: Hsp47-HT, P19324 E356A (protein)
chain: B1 chain with E356A
B4: Hsp47-HT, P19324 D351A (protein)
chain: B1 chain with D351A
B5: Hsp47-HT, P19324 I352A (protein)
chain: B1 chain with I352A
B6: Hsp47-HT, P19324 Q350A (protein)
chain: B1 chain with Q350A
B7: Hsp47-HT, P19324 R355A (protein)
chain: B1 chain with R355A
B8: recombinant mouse Hsp47 (rmHsp47) I352A (natural protein)
chain: B1 chain with I352A
B9: recombinant mouse Hsp47 (rmHsp47) Y353A (natural protein)
chain: B1 chain with Y353A
B10: recombinant mouse Hsp47 (rmHsp47) WT (natural protein)
chain: B1 chain
B11: Hsp47-HT, P19324 I352F (protein)
chain: B1 chain with I352F
B12: Hsp47-HT, P19324 Y353F (protein)
chain: B1 chain with Y353F
B13: Hsp47-HT, P19324 Y353E (protein)
chain: B1 chain with Y353E
B14: Hsp47-HT, P19324 Y353L (protein)
chain: B1 chain with Y353L
B15: Hsp47-HT, P19324 I352E (protein)
chain: B1 chain with I352E
B16: Hsp47-HT, P19324 I352R (protein)
chain: B1 chain with I352R
B17: Hsp47-HT, P19324 Y353R (protein)
chain: B1 chain with Y353R
B18: Hsp47-HT, P19324 I352L (protein)
chain: B1 chain with I352L

biological target: colFD-NL (bacteriophage T4); experiment: FRET or BRET; NanoBRET in the ER of living, transiently transfected HEK293 cells; colFD-NL (NanoLuc) donor, Hsp47-HT with HT ligand 618 (20-100 nM) acceptor; cells washed, furimazine added, 37 °C; BRET ratio 618/460 nm (mBU); some panels with Col003 and derivatives (2 h) or α,α-dipyridyl; the cell line is not named for every panel; conditions: not given

Binder	BRET ratio (donor to acceptor 1:50, HEK293)
B1	40 mBU

biological target: colFD-NL (bacteriophage T4); experiment: FRET or BRET; NanoBRET in the ER of living, transiently transfected HeLa cells; colFD-NL donor, Hsp47-HT with HT ligand 618 acceptor; 37 °C; conditions: not given

Binder	BRET ratio (donor to acceptor 1:100, HeLa)
B1	25 mBU

Biological target: T1, colFD-NL
Experiment: BRET
Conditions: chain shown with the change; in the ER of HEK293 cells; n = 4; parent: est. 100; read off a plot

Binder	percent of parent
B2	84%
B3	95%
B4	100%
B5	86%
B6	100%
B7	96%

biological target: Collagen (pig's skin type I-C (Nitta Gelatin Inc.)) (pig); experiment: SPR; Biacore T200; collagen amine-coupled to a CM5 chip (∼2,000 response units), rmHsp47 injected; 10 mM HEPES, 0.15 M NaCl, 0.05% surfactant P20, pH 7.4; 25 °C; kobs linearization method (Anabel); conditions: not given

Binder	Kd
B8	3.3 µM
B9	3.6 µM
B10	1.5 µM

Biological target: T1, colFD-NL
Experiment: BRET
Conditions: chain shown with the change; in the ER of HEK293 cells; n = 4; parent: est. 100; read off a plot
Remark: another data set of the same source

Binder	percent of parent
B2	83%
B11	95%
B12	88%
B13	77%
B5	85%
B14	82%
B15	83%
B16	81%
B17	74%
B18	92%
